Data from a protein production outcome set (Wang et al. 2014).

Test: label from the status in PepcDB records

Sequence: MSTSPADTARYNRFVADLFGMMAYGELSAFERFSADARYSPTLHDRAVLGRIAVVEFRHYELVSARLEAMGIDAEDAMLPFQAAVDYFHSRTRPADWYESLMKAYVIDTVSADFYRAISRYVDAGTRDVIEQIQASDETTEVLRERLRSALADDPRLASRLALWGRRLLGEALTQAQRVSYEHAFLGSLIGGEDSAAAKELVSGLIAGLAEKHSKRMTQLGLTG
- protein production: not failed

Sequence: MSTVETPVYVPRTVVHKFGGTSVADADCYRHVTRLLLAREETVQVTIVSAMKGVTDTLIALAEQAANHSPDWQVLWQQTRTRHCDAAQALLGEHAATLQDWLNTRFNELHEMLVALSVIGMLPSEVLDRLQGLGEVYSAQLLGHYLQSQGEDCVVLDARQVLVVSPGEFGAEVDWATSAQHLAHWRMQHPQRRVVVTGFVASDRTGRAITLGRNGSDYSGAIFAALFEADELHIWTDVDGVMSADPRVVPDAVQLDALSYDEACELAYFGAKVVHPQTMSPVMKRGVPIIIRNTFQPGHPGTRITADSVVSGSVKGLTLSPGLAVLNLEGTGLIGVPGTAERVFAALRNARLSVVMISQGSSEHSICCLVHQTEAERARDALLYAFAHELAIGHVQRVQLTNNISVLAAVGDGMAGHLGVAARLFESLRRAHVNILAIAQGSSERNISVAIDSQQATKALRAAHAAFWLSPQTFSIGVIGPGHVGEALLDQLCAAQQQLLSKANLDLRLRAIVSRRRMLLDERGLGSDWRHAFAAAPEAVDLDAFTAHLQAAHLPHAVIIDCSGSAEVADRYADWLAAGIHVVTPNKQAGSGPLHRYHAIRAAADASGARFRYEATVGAGLPVITTLRDLMDTGDSVTSIEGIFSGTLAWLFNKYDGSVPFSQLIAQARAMGYTEPDPRDDLSGVDVARKLVILARDAGRDISLEDVAVESLVPETLCQLSVADFMERLNEIDATFAERLAAAKQRGCVLRYVAQLSPGHVPSVSLIELPSDHAFVNLRLTDNVVQFTTRRYSENPLIVQGPGAGPEVTAAGVFADLLRVAAGEGARL
- protein production: failed

Sequence: MSTVNGANIQSEEQHTGGCSAGCSGGSTGGSTDGSTGGNTQQGCSCDTHDEQRDGSVAAQTFGEEGPVKTLGRIGSKLVVLSGKGGVGKSTVAVNLAVGLARAGRKVGLLDVDVHGPSVPRLLGLTGTRPMIGEDAMYPVGWRNNLRVMSLGFFLPDPEQAVIWRGPVKMGLIRHFLTEVRWGDLDHLVVDCPPGTGDEPLSVLQLLGTDAQAVIVTTPQGVAVDDVRRSVGFCRELGNPILGIVENMGGYVCPKCGELTPLFPAGGGEALAAEQGVTFLGRIPLHPDLTSAGDAGRSLYEADAAHPIVRALAPIVERAAATLHASDIRHESTTGPQSEAAPGTGKTAATMPTAPTRNESCAPATNHPDTNGDTTMKIAIPVAGDVLCQHFGHCERFALIDVDPATGSVTGRNDVTPPPHEPGLLPVWLSEKGANLVIAGGMGARARALLEERGVKVLIGAPAAAPEAIVAAHMAGTLTLGANTCDH
- protein production: failed

Sequence: MSTYTARLGGRTHSFPSLAALLAAASPERSGDRLAGLAADSAEARVAARWALAEVPLARFLAEPVIPYEDDDVTRLIVDTHDARAFAPVAGLCVGEFREWLLSDAADAGSLAALAPGLTPEMVAAVSKLMGNADLVAVARKARVVTAFRSTIGLPGRLATRLQPNHPTDDPAGVAAALLDGLLLGSGDAVIGINPATDSPKAVRDLLELLDGVIRRYAIPTQSCVLCHVTTSIDLMERGAPVDLVFQSIAGTQAANASFGVTLGLLDEAYDAARGLGRGTAGQNALYFETGQGSALSANAHHGVDQQTVEARAYAVARRYDPLLVNTVVGFIGPEYLYDGRQILRAALEDHFCGKLLGLPMGLDICYTNHADADDDDIATMLTMLGVAGASFVICTPGGDDIMLNYQSASYHDALYLREVLGLRPAPEFEDWLSRIGLLDDAGAIRDVTGTAHPLTAIGRELAA
- protein production: failed

Sequence: MSVADSYFDELFRNNDDPWAFKQRWYERRKRALTLAALPRERYRAIFEPGCANGELSADLAERCDMLVCCDTSTQAVELARQRLADVPHARVVQARLPHQWPAGQFDLIVFSELGYYLDAADLHRLIDCALAALSPDGQLLACHWRPDIEGCPLNAQAVHAILAERLSMHRLFSHHEQDFLLDLWSRDGTSVAELEHHHHHH
- protein production: not failed

Sequence: MSVDAVEIETLRKTVEDYFCFCYGKALGKSTVVPVPYEKMLRDQSAVVVQGLPEGVAFKHPENYDLATLKWILENKAGISFIIKRPFLEPKKHVGG
- protein production: not failed

Sequence: MSVEAAKNARELLLKEYRAVLSTHSKKWPGFPFGSVVPYCLDAEGRPLILISRIAQHTHNLQADPRCSMLVGERGAEDIQAVGRLTLLAEARQLAEEEVAAAAERYYRYFPESADYHRVHDFDFWVLQPVQWRFIGGFGAIHWLAAERVPLANPFAGEAERGMVEHMNSDHAAAIAHYVELAGLPAHAAAQLAGIDTEGFHLRIGQGLHWLPFPAACGNPGAVRQALVQLARAERWPTVEPEQG
- protein production: not failed

Sequence: MSVEQLNQLNIEELIITLENVLKILKQYSKVSNSSITFKEFVDYWFEAYASTAVKPSTQKRYRQLLKPALRAIGNKPLNKVKPLDIQNIYIALAGTQSNCTILKLHRLLHEIFKHAQMWEYISDNPVKKVVPPTPEKKVFDVWDVETAKRFLEIIKDEPIYYPALIALHTGMRAGEILSLKWCDVNFETRVISIVKSERKNRGLKTVNLKTKTSKRAVYMNDILYKELKNLYEITKPKPDDFVCPRLPTGNLTVNYLSRKFKKLVKKHNFPLIRFHDLRHTFATLMLSLGVNTKIVAEILGHSDIKLTADTYSHVLPTMQEEAMKEFVKLWK
- protein production: failed

Sequence: MSVFSGFPASPPDAILNLTVLYNADTNPKKVNLGVGAYRDESGKPWILPAVKEAEAIISSDLSKYNKEYPPVAGFPLFLEAAQFLMFGKDSKAAQEGRIASCQSLSGTGSLHIGFEFLHLWMPKAEFYMPSTTWPNHYGIYDKVFNKLKVPYKEYTYLRKDGELEIDFSNTKKDIQSAPEKSIFLFHACAHNPSGIDFTEAQWKELLPIMKEKKHIAFFDSAYQGFATGSFEADAFAVRMFVDAGVEVLVAQSFSKNFGLYGERIGCLHVVHAGVEGSVEKNKALSAAMVSGMTLQIRKTWSMSAIHGAYIVQVIVHDKRLLQMFYDNVKEMSARIHRMRSLLHASLAKRKTPGPGSKGTWDHILTAIGMFTFTGLTPEHVDYLKEKWSIYLVKAGGRMSMCGLTESNCDYVAEAIHDAVTKLPFKK
- protein production: not failed

Sequence: MSVGIDSLDNDHKKLIAILAQLMSAKNEKLGQDDIDVIFERLEGYCLSHFAREEALLAKIDYKQLEAHKLSHQAFIKKIPQLKEQWFAKVTESEAVKDKIILFLQQWLIKHILEEDLDYVPAIHCFQEFSRYEKDKKAKHPWLRFFSIKLSHCLILSHRVLITTLLPVAAVLLLCFFILKDNYQRYDSISKVLGLNSVIEQVNGISHSLQAERGLSTGYTSSNYRSFAKQLRQRRKSTDAKIQYFLWLLEQSANQEIKVSVSRYMTNFQEIVANLSRHRMHLDQKIVGFEETYHAYTQLIGQLLSVSDHLVHIEIGSSHANDISAINAILRYKEFMGQIRAIGMKMAENHQENIYGNVEVSLLIGKQLNTLLIFKNAANSAQKSICGHYCDAFALRQHLESSYLETMQFEDKDVRAARWFKVMSAKVDNLNSVVQRLINEFDGQIYIESQKLKKEGYLIILAMLIFLLVAIFFALVLNYSIISPVRKLTYALNDMSEGQNNIHFNHIDSKDEIGSMQLAFEKLRRKLLQGDVYKATVSQQQKEIKYRKSQQDHFQQLALTDALTGAVNRHHFNEVLDQEIANVNNHGSPLSIMLLDIDHFKSVNDRYGHGVGDEVLVMFYQTCVEAVRSSDVVARIGGEEFVIIMPNTQLVNAQKFAERLRQKIAKLELNIANNQISVTVSIGVSQWQSEYFTNAETFVAHADKSLYQAKNSGRNKVVVAQQ
- protein production: failed

Sequence: MSVGVEVLTISFVVIVIAAVIGFLARSKNVSLEQWAVGGRNIGALLIWFLLAGEIYTAFTFLGVPGYAYAFGAPAYYALSYGVLAYLTSYFILPKIWRISKKKNIMTQPDFFKERYQSTLLATIVAVVGVVFMVPYLELQVSAITDILEVMGYNVIMPAYVMIITFVLTAGYVIMNGLRSATFTAFFKDGLALIVIFSALIVIPAVQFGDLNNMMHRMVTNYSEYLYFPGHSELGLSWFVSVVLMSALGFFMWPHSFQSYISAKNDNVLKKNAVFLPVYNVLLVITVFMGFAALLYNPHLSNADDAFLIVARASFPSWWNGVVAGAITLGSMVPASVLLIASSTIISKNLYKDLINKKASDSSVKFIAQVFVAIITGVALLFAIEFPALFVNLLLLGYSGITLFFPGIVMGITWRKVTAVGVISGIITGLIVNAVFFLPLSSYSHIIYPGLVGLFADTVVTILVSLVTKAPSGEVIEEFVTA
- protein production: failed

Sequence: MSVIKIEKALKLDKVIFVDVRTEGEYEEDHILNAINMPLFKNNEHNEVGTIYKMQGKHEAIQKGFDYVSYKLKDIYLQAAELALNYDNIVIYCARGGMRSGSIVNLLSSLGVNVYQLEGGYKAYRNFVLEY
- protein production: not failed
